The chains are these.
B1: Protein E7 (Human papillomavirus type 1a), P06465 (parent)
chain: MVGEMPALKDLVLQLEPSVLDLDLYCYEEVPPDDIEEELVSPQQPYAVVASCAYCEKLVRLTVLADHSAIRQLEELLLRSLNIVCPLCTLQRQ
partner: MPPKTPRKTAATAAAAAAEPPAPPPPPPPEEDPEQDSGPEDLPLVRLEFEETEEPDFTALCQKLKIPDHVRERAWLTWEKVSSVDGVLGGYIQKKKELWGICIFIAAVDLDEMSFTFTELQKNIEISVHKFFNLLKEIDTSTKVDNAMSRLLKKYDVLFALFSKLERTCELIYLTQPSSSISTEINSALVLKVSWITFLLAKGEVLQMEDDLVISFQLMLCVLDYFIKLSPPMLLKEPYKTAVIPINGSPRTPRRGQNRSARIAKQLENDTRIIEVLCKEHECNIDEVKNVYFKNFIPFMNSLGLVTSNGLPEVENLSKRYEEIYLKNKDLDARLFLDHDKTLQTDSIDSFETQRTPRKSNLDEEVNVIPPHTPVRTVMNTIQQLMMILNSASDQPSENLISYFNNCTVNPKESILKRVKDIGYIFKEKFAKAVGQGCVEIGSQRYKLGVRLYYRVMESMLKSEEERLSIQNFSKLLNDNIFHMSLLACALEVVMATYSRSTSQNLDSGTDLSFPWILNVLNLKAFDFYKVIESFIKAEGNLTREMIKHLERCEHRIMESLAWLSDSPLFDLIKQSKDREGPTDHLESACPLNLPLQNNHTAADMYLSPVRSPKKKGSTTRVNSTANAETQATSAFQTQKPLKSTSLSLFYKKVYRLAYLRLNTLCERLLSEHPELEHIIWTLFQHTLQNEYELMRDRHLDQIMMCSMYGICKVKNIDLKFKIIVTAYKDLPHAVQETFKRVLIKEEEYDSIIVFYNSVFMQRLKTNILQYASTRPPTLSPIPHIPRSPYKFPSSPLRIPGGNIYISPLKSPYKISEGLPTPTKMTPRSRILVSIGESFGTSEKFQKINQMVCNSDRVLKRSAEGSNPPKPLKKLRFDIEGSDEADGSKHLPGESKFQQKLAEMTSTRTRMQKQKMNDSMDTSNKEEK
B2: Protein E7 (Human papillomavirus type 1a), P06465 (parent)
chain: B1 chain
B3: Retinoblastoma-associated protein (Homo sapiens), P06400 (parent)
chain: B1 partner
partner: B1 chain

In the first assay the parent is B1. The settings on record: with rb_human RB1, P06400.
As to MVGEMPALKDLVLQLEPSVLDLDLYCYEEVPPDDIEEELVSPQQPYAVVASCAYCEKLVRLTVLADHSAIRQLRRLLLRSLNIVCPLCTLQRQ [E74R;E75R], the “effect of a mutation on the interaction” value was “decreasing interaction”.

The variants in another assay derive from B2. The settings on record: with e2f3_human E2F3, O00716.
Chain of e2f3_human E2F3, O00716 (O00716 whole entry): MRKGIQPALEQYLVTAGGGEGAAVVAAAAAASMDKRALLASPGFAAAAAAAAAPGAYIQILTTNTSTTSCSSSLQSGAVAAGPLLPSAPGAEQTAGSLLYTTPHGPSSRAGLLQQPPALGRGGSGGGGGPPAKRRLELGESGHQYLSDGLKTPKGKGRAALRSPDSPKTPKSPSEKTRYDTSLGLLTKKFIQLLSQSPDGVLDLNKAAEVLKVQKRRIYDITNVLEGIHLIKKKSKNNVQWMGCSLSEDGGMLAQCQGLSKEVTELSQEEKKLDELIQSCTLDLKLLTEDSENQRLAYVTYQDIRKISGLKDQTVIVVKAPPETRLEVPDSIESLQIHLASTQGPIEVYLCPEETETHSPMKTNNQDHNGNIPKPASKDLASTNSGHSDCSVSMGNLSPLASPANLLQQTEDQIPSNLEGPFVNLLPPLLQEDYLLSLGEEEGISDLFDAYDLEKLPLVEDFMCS
Turning to MVGEMPALKDLVLQLEPSVLDLDLYCYEEVPPDDIEEELVSPQQPYAVVASCAYCEKLVRETVLADHSAIRQLEELLLRSLNIVCPLCTLQRQ [L61E], the “effect of a mutation on the interaction” value is “decreasing interaction”. In the case of MVGEMPALKDLVLQLEPSVLDLDLYCYEEVPPDDIEEELVSPQQPYAVVASCAYCEKLVELTVLADHSAIRQLEELLLRSLNIVCPLCTLQRQ [R60E], the “effect of a mutation on the interaction” value is on record as “decreasing interaction”.

In another assay the parent is B3. The settings on record: with ve7_hpv1 E7, P06465.
For K810E;K814E;K824E, the “effect of a mutation on the interaction” value was “disrupting interaction”.

Source of the values: IntAct's records for PubMed 16249186.
